One assay concerns the target T1, human CD3 epsilon (human, UniProt P07766 23-126, limits assumed).
T1 construct: also called huCD3e
The assay can be described thus: Octet, crude lysate. How it is done: Pool 2 consisted of paTCE molecules each containing PSMA.262 and one of 64 CD3.23 mutation combination variants. Stability and affinity of the individually expressed molecules in the form of crude lysate was evaluated by Octet. […] The binding of these anti-CD3 molecules (CD3.227, CD3.228, CD3.229 and CD3.230) to human and cynomolgus CD3 was measured by Octet and the Tm was measured by Differential Scanning Fluorimetry. All variants were paired with PSMA.262 except for CD3.23 which was paired with PSMA.5.
In general terms: Biolayer interferometry detects binding as a change in optical thickness at a sensor tip.

The target of the next assay is T2, human PSMA (human, UniProt Q04609 44-750, limits assumed).
T2 construct: also called huPSMA; hPSMA
T2 sequence (Q04609 44-750 limits assumed): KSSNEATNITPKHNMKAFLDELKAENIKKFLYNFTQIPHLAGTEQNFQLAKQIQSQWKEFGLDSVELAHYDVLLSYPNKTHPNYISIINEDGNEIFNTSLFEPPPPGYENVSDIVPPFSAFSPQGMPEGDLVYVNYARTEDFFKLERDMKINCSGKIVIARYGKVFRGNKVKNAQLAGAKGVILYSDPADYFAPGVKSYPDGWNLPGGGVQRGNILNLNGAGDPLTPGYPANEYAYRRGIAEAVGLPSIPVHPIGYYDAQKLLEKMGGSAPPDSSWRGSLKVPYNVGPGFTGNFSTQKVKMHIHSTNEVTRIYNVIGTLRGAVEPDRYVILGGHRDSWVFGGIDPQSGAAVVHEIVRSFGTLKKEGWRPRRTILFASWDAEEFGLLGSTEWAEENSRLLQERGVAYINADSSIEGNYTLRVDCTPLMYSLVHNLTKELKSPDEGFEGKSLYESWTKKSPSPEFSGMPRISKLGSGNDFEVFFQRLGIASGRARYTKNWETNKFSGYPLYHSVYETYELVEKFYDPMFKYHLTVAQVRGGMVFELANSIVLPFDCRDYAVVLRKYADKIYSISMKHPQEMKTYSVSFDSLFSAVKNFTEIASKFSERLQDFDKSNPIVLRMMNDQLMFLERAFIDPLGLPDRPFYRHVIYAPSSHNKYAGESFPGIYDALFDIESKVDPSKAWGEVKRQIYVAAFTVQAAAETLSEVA
The assay can be described thus: binding screen.

Positions count from the first letter of the chain named.

T1 sequence (P07766 23-126 limits assumed): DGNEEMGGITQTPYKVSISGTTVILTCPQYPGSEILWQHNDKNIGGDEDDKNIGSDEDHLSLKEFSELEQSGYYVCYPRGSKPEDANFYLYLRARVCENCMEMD

B1: CD3.247 (bispecific antibody, V domains shown)
VH: EVQLVESGGGIVQPGGSLRLSCAASGFTFNTYAMNWVRQAPGKGLEWVARIRSKRNNYATTYADSVKDRFTISRDDSKNTLYLQMNSLKTEDTAVYYCVRHENFGNSYVSWFAHWGQGTLVTVSS
VL: ELVVTQEPSLTVSPGGTVTLTCRSSNGAVTSSNYANWVQQKPGQAPRGLIGGTNKRAPGTPARFSGSLLGGKAALTLSGVQPEDEAVYYCALWYPNLWVFGGGTKLTVL
notes: paTCE with PSMA.262; also called AC3678
With B1, the Kd with human CD3 epsilon came to 28.9 nM.

B2: CD3.253 (bispecific antibody, V domains shown)
VH: B1 VH with A49G, R55T, L81V
VL: B1 VL
notes: paTCE with PSMA.262; also called AC3684
Regarding B2, the Kd in the assay with human CD3 epsilon stood at 79.9 nM.

B3: CD3.254 (bispecific antibody, V domains shown)
VH: B1 VH with A49G, S53T, R55Y, L81V, S87E
VL: B1 VL
notes: paTCE with PSMA.262; also called AC3685
Regarding B3, the Kd in the assay with human CD3 epsilon is 32.3 nM.

B4: CD3.252 (bispecific antibody, V domains shown)
VH: B1 VH with A49G, R55K, L81V
VL: B1 VL
notes: paTCE with PSMA.262; also called AC3683
As to B4, the Kd in the assay with human CD3 epsilon came to 22.9 nM.

B5: CD3.263 (bispecific antibody, V domains shown)
VH: B1 VH with R19K, A49G, S53T, T61Y, D68G, L81V
VL: B1 VL
notes: paTCE with PSMA.262; also called AC3694
Consider B5, for which the dissociation constant (Kd) with human CD3 epsilon is 7.2 nM.

B6: CD3.257 (bispecific antibody, V domains shown)
VH: B1 VH with A49G, R55T, L81V, S87E
VL: B1 VL
notes: paTCE with PSMA.262; also called AC3688
As for B6, the dissociation constant Kd with human CD3 epsilon amounted to 159 nM.

B7: CD3.264 (bispecific antibody, V domains shown)
VH: B1 VH with R19K, N30S, A49G, S53T, T61Y, D68G, L81V
VL: B1 VL
notes: paTCE with PSMA.262; also called AC3695
In the case of B7, the dissociation constant (Kd) with human CD3 epsilon was determined as 4.5 nM.

B8: CD3.249 (bispecific antibody, V domains shown)
VH: B1 VH with R55T
VL: B1 VL
notes: paTCE with PSMA.262; also called AC3680
B8: the Kd in the assay with human CD3 epsilon came out at 128 nM.

B9: CD3.255 (bispecific antibody, V domains shown)
VH: B1 VH with A49G, L81V, S87E
VL: B1 VL
notes: paTCE with PSMA.262; also called AC3686
B9: in the assay with human CD3 epsilon, the Kd was determined as 22.4 nM.

B10: CD3.248 (bispecific antibody, V domains shown)
VH: B1 VH with R55K
VL: B1 VL
notes: paTCE with PSMA.262; also called AC3679
Turning to B10, the Kd in the assay with human CD3 epsilon stood at 49.2 nM.

B11: CD3.259 (bispecific antibody, V domains shown)
VH: B1 VH with A49G
VL: B1 VL
notes: paTCE with PSMA.262; also called AC3690
Consider B11, for which the Kd with human CD3 epsilon is 29.4 nM.

B12: CD3.258 (bispecific antibody, V domains shown)
VH: B1 VH with A49G, S53T, R55Y
VL: B1 VL
notes: paTCE with PSMA.262; also called AC3689
B12: the Kd in the assay with human CD3 epsilon is 38 nM.

B13: CD3.260 (bispecific antibody, V domains shown)
VH: B1 VH with A49G, R55K
VL: B1 VL
notes: paTCE with PSMA.262; also called AC3691
B13: in the assay with human CD3 epsilon, the Kd came out at 45.6 nM.

B14: CD3.261 (bispecific antibody, V domains shown)
VH: B1 VH with A49G, R55T
VL: B1 VL
notes: paTCE with PSMA.262; also called AC3692
B14: the Kd with human CD3 epsilon was 97 nM.

B15: CD3.250 (bispecific antibody, V domains shown)
VH: B1 VH with A49G, S53T, R55Y, L81V
VL: B1 VL
notes: paTCE with PSMA.262; also called AC3681
As to B15, the Kd in the assay with human CD3 epsilon is 31 nM.

B16: CD3.262 (bispecific antibody, V domains shown)
VH: B1 VH with A49G, S87E
VL: B1 VL
notes: paTCE with PSMA.262; also called AC3693
B16: the dissociation constant Kd with human CD3 epsilon came out at 25.4 nM.

B17: PSMA.306 (bispecific antibody, V domains shown)
VH: QVQLVESGGGVVQPGRSLRLSCAASGRTFGIYVMGWFRQAPGKEREFVGAMSWSGSNRKVSDSVKGRFTISRDNSKNTLYLQMNSLRAEDTAVYYCAASNKLYGRTWYDFNESDYWGQGTQVTVSS
notes: TCE with CD3.23; also called AC3708
On to B17, for which the Kd with human PSMA came out at 10.4 nM.

B18: PSMA.302 (bispecific antibody, V domains shown)
VH: B17 VH with M34W, M51I, Y95F
notes: TCE with CD3.23; also called AC3704
With B18, the affinity with human PSMA, expressed as Kd, was 2.8 nM.

B19: PSMA.323 (bispecific antibody, V domains shown)
VH: B17 VH with M51I, Y94T, A98G
notes: TCE with CD3.23; also called AC3725
With B19, the binding result with human PSMA is “no binding”.

B20: PSMA.313 (bispecific antibody, V domains shown)
VH: B17 VH with M51I, L102R
notes: TCE with CD3.23; also called AC3715
Take B20: in the assay with human PSMA, the binding result is given as “no binding”.

B21: PSMA.315 (bispecific antibody, V domains shown)
VH: B17 VH with M51I, L102E
notes: TCE with CD3.23; also called AC3717
With B21, in the assay with human PSMA, binding was characterised by a dissociation constant (Kd) of 24.2 nM.

B22: PSMA.319 (bispecific antibody, V domains shown)
VH: B17 VH with M51I, Y94N, A98G
notes: TCE with CD3.23; also called AC3721
For B22, the binding result with human PSMA was “no binding”.

B23: PSMA.331 (bispecific antibody, V domains shown)
VH: B17 VH with M51I, Y95F, A97G
notes: TCE with CD3.23; also called AC3733
In the assay with human PSMA, B23 showed a dissociation constant (Kd) of 12.1 nM.

B24: PSMA.314 (bispecific antibody, V domains shown)
VH: B17 VH with M51I, L102D
notes: TCE with CD3.23; also called AC3716
The molecule B24 yielded a Kd with human PSMA of 69.9 nM.

B25: PSMA.322 (bispecific antibody, V domains shown)
VH: B17 VH with M51I, Y94S, A98G
notes: TCE with CD3.23; also called AC3724
Take B25: the binding result in the assay with human PSMA is “no binding”.

B26: PSMA.332 (bispecific antibody, V domains shown)
VH: B17 VH with M51I, Y95F, A98G
notes: TCE with CD3.23; also called AC3734
B26 gave a Kd with human PSMA of 24.1 nM.

B27: PSMA.320 (bispecific antibody, V domains shown)
VH: B17 VH with M51I, Y94G, A98G
notes: TCE with CD3.23; also called AC3722
For B27, the binding result with human PSMA is reported as “no binding”.

B28: PSMA.324 (bispecific antibody, V domains shown)
VH: B17 VH with M51I, Y94A, Y95F
notes: TCE with CD3.23; also called AC3726
Take B28: the binding result with human PSMA is recorded as “no binding”.

B29: PSMA.330 (bispecific antibody, V domains shown)
VH: B17 VH with M51I, Y94S, Y95F
notes: TCE with CD3.23; also called AC3732
As for B29, the binding result with human PSMA is reported as “no binding”.

B30: PSMA.329 (bispecific antibody, V domains shown)
VH: B17 VH with M51I, Y94K, Y95F
notes: TCE with CD3.23; also called AC3731
Turning to B30, the binding result in the assay with human PSMA is given as “no binding”.

B31: PSMA.318 (bispecific antibody, V domains shown)
VH: B17 VH with M51I, Y94R, A98G
notes: TCE with CD3.23; also called AC3720
In the case of B31, the binding result with human PSMA was “no binding”.

B32: PSMA.327 (bispecific antibody, V domains shown)
VH: B17 VH with M51I, Y94D, Y95F
notes: TCE with CD3.23; also called AC3729
For the molecule B32, the binding result with human PSMA is “no binding”.

B33: PSMA.333 (bispecific antibody, V domains shown)
VH: B17 VH with M51I, Y95F, L102R
notes: TCE with CD3.23; also called AC3735
As for B33, the binding result in the assay with human PSMA was “no binding”.

B34: PSMA.309 (bispecific antibody, V domains shown)
VH: B17 VH with M34W, Y95F, L102W
notes: TCE with CD3.23; also called AC3711
B34 registered a dissociation constant (Kd) with human PSMA of 8.5 nM.

B35: PSMA.317 (bispecific antibody, V domains shown)
VH: B17 VH with M51I, Y94A, A98G
notes: TCE with CD3.23; also called AC3719
Turning to B35, the binding result in the assay with human PSMA was “no binding”.

B36: PSMA.301 (bispecific antibody, V domains shown)
VH: B17 VH with M51I, Y95F
notes: TCE with CD3.23; also called AC3703
Turning to B36, the Kd in the assay with human PSMA came to 10 nM.

B37: PSMA.316 (bispecific antibody, V domains shown)
VH: B17 VH with M51I, L102G
notes: TCE with CD3.23; also called AC3718
Regarding B37, the equilibrium dissociation constant (Kd) in the assay with human PSMA was 150 nM.

B38: PSMA.311 (bispecific antibody, V domains shown)
VH: B17 VH with M51I, Y94D
notes: TCE with CD3.23; also called AC3713
Regarding B38, in the assay with human PSMA, the binding result was “no binding”.

B39: PSMA.325 (bispecific antibody, V domains shown)
VH: B17 VH with M51I, Y94R, Y95F
notes: TCE with CD3.23; also called AC3727
As for B39, the binding result with human PSMA is given as “no binding”.

B40: PSMA.307 (bispecific antibody, V domains shown)
VH: B17 VH with M34W
notes: TCE with CD3.23; also called AC3709
Consider B40, for which, in the assay with human PSMA, binding was characterised by a dissociation constant (Kd) of 6 nM.

B41: PSMA.304 (bispecific antibody, V domains shown)
VH: B17 VH with M34W, Y95F
notes: TCE with CD3.23; also called AC3706
The molecule B41 displayed a Kd with human PSMA of 5.9 nM.

B42: PSMA.310 (bispecific antibody, V domains shown)
VH: B17 VH with M51I, A97G, A98G
notes: TCE with CD3.23; also called AC3712
Molecule B42 displayed a dissociation constant (Kd) with human PSMA of 23.1 nM.

B43: PSMA.305 (bispecific antibody, V domains shown)
VH: B17 VH with M34W, M51I
notes: TCE with CD3.23; also called AC3707
For the molecule B43, the binding result with human PSMA was “binds”.

B44: PSMA.312 (bispecific antibody, V domains shown)
VH: B17 VH with M51I, A97G
notes: TCE with CD3.23; also called AC3714
With B44, the Kd in the assay with human PSMA is 12 nM.

B45: PSMA.308 (bispecific antibody, V domains shown)
VH: B17 VH with M34W, L102W
notes: TCE with CD3.23; also called AC3710
Consider B45, for which the affinity in the assay with human PSMA, expressed as Kd, was 8.8 nM.

B46: PSMA.321 (bispecific antibody, V domains shown)
VH: B17 VH with M51I, Y94K, A98G
notes: TCE with CD3.23; also called AC3723
On to B46, for which the binding result in the assay with human PSMA is reported as “no binding”.

B47: PSMA.326 (bispecific antibody, V domains shown)
VH: B17 VH with M51I, Y94N, Y95F
notes: TCE with CD3.23; also called AC3728
For the molecule B47, the binding result with human PSMA is listed as “no binding”.

B48: PSMA.303 (bispecific antibody, V domains shown)
VH: B17 VH with Y95F
notes: TCE with CD3.23; also called AC3705
Molecule B48 yielded a Kd with human PSMA of 10.3 nM.

B49: PSMA.328 (bispecific antibody, V domains shown)
VH: B17 VH with M51I, Y94G, Y95F
notes: TCE with CD3.23; also called AC3730
Turning to B49, the binding result with human PSMA is reported as “no binding”.

A word on the Kd: it is the constant that tells how readily two partners part at equilibrium.

(Values after patent publication US20260055205A1 (published 2026).)
